B1: DVD3023 (bispecific antibody, IgG1)
VH: EVQLVQSGAEVKKPGASVKVSCKASGYTFTKYWLGWVRQAPGQGLEWMGDIYPGYDYTHYNEKFKDRVTLTTDTSTSTAYMELRSLRSDDTAVYYCARSDGSSTYWGQGTLVTVSSGGGGSGGGGSEVQLVQSGAEVKKPGASVKVSCKASGYTFNNYGIIWVRQAPGQGLEWMGWINTYTGKPTYAQKFQGRVTMTTDTSTSTAYMELSSLRSEDTAVYYCARKLFNTVAVTDNAMDYWGQGTTVTVSS
VL: DVLMTQTPLSLPVTPGEPASISCTSSQNIVHSNGNTYLEWYLQKPGQSPQLLIYKVSNRFSGVPDRFSGSGSGTDFTLKISRVEAEDVGVYYCFQVSHVPYTFGGGTKVEIKRGGSGGGGSGDIQMTQSPSSLSASVGDRVTITCRASQDIENYLNWYQQKPGKAPKLLIYYTSRLQSGVPSRFSGSGSGTDFTLTISSLQPEDFATYFCQQGNTQPPTFGQGTKLEIKR
B2: DVD3022 (bispecific antibody, IgG1)
VH: EVQLVQSGAEVKKPGASVKVSCKASGYTFNNYGIIWVRQAPGQGLEWMGWINTYTGKPTYAQKFQGRVTMTTDTSTSTAYMELSSLRSEDTAVYYCARKLFNTVAVTDNAMDYWGQGTTVTVSSASTKGPSVFPLAPEVQLVQSGAEVKKPGASVKVSCKASGYTFTKYWLGWVRQAPGQGLEWMGDIYPGYDYTHYNEKFKDRVTLTTDTSTSTAYMELRSLRSDDTAVYYCARSDGSSTYWGQGTLVTVSS
VL: DIQMTQSPSSLSASVGDRVTITCRASQDIENYLNWYQQKPGKAPKLLIYYTSRLQSGVPSRFSGSGSGTDFTLTISSLQPEDFATYFCQQGNTQPPTFGQGTKLEIKRTVAAPDVLMTQTPLSLPVTPGEPASISCTSSQNIVHSNGNTYLEWYLQKPGQSPQLLIYKVSNRFSGVPDRFSGSGSGTDFTLKISRVEAEDVGVYYCFQVSHVPYTFGGGTKVEIKR
B3: DVD3024 (bispecific antibody, IgG1)
VH: EVQLVQSGAEVKKPGASVKVSCKASGYTFTKYWLGWVRQAPGQGLEWMGDIYPGYDYTHYNEKFKDRVTLTTDTSTSTAYMELRSLRSDDTAVYYCARSDGSSTYWGQGTLVTVSSASTKGPEVQLVQSGAEVKKPGASVKVSCKASGYTFNNYGIIWVRQAPGQGLEWMGWINTYTGKPTYAQKFQGRVTMTTDTSTSTAYMELSSLRSEDTAVYYCARKLFNTVAVTDNAMDYWGQGTTVTVSS
VL: DVLMTQTPLSLPVTPGEPASISCTSSQNIVHSNGNTYLEWYLQKPGQSPQLLIYKVSNRFSGVPDRFSGSGSGTDFTLKISRVEAEDVGVYYCFQVSHVPYTFGGGTKVEIKRTVAAPDIQMTQSPSSLSASVGDRVTITCRASQDIENYLNWYQQKPGKAPKLLIYYTSRLQSGVPSRFSGSGSGTDFTLTISSLQPEDFATYFCQQGNTQPPTFGQGTKLEIKR
B4: DVD3027 (bispecific antibody, IgG1)
VH: EVQLVQSGAEVKKPGASVKVSCKASGYTFTKYWLGWVRQAPGQGLEWMGDIYPGYDYTHYNEKFKDRVTLTTDTSTSTAYMELRSLRSDDTAVYYCARSDGSSTYWGQGTLVTVSSASTKGPSVFPLAPEVQLVQSGAEVKKPGASVKVSCKASGYTFNNYGIIWVRQAPGQGLEWMGWINTYTGKPTYAQKFQGRVTMTTDTSTSTAYMELSSLRSEDTAVYYCARKLFNTVAVTDNAMDYWGQGTTVTVSS
VL: B3 VL
B5: DVD3026 (bispecific antibody, IgG1)
VH: B3 VH
VL: DVLMTQTPLSLPVTPGEPASISCTSSQNIVHSNGNTYLEWYLQKPGQSPQLLIYKVSNRFSGVPDRFSGSGSGTDFTLKISRVEAEDVGVYYCFQVSHVPYTFGGGTKVEIKRTVAAPSVFIFPPDIQMTQSPSSLSASVGDRVTITCRASQDIENYLNWYQQKPGKAPKLLIYYTSRLQSGVPSRFSGSGSGTDFTLTISSLQPEDFATYFCQQGNTQPPTFGQGTKLEIKR

Target: Recombinant Human TNF-α/TNFSF1A (human, UniProt P01375 77-233)
Assay: cell-based or functional assay

Chain of Recombinant Human TNF-α/TNFSF1A (P01375 77-233 limits assumed): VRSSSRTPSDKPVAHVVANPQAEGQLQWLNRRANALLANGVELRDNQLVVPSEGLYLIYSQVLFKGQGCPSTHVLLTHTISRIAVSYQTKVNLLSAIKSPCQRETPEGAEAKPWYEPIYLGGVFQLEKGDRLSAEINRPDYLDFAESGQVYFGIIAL

Binder	C-Terminal VD huTNFα Neutralization Assay IC50	N-Terminal VD huTNFα Neutralization Assay IC50
B1	203 pM	
B2		16 pM
B3	934 pM	
B4	76 pM	
B5	38 pM	

From patent publication US20140271457A1 (AbbVie / Abbott, published 2014)
